{
  "source": "paper PMC11885821",
  "about": "“Structures of complete HIV-1 TAR RNA portray a dynamic platform poised for protein binding and structural remodeling”",
  "molecules": {"B1": {"name": "TAR2GC (WT) (structured_RNA)", "RNA": "GGUCUCUCUGGUUAGACCAGAUCUGAGCCUGGGAGCUCUCUGGCUAACUAGGGAACC"}, "B2": {"name": "2AP17 TAR2GC (structured_RNA)", "RNA": "B1 RNA", "modifications": "2-aminopurine at A17"}, "B3": {"name": "2AP3 TAR2GC C57U (structured_RNA)", "RNA": "B1 RNA with G2A, C56U", "modifications": "2-aminopurine at G3; C57U"}, "B4": {"name": "2AP20 TAR2GC (structured_RNA)", "RNA": "B1 RNA", "modifications": "2-aminopurine at A20"}, "B5": {"name": "TAR A48U/C49G/U50A (structured_RNA)", "RNA": "B1 RNA with A47U, C48G, U49A"}, "B6": {"name": "TAR GAAA (TAR-I) (structured_RNA)", "RNA": "B1 RNA with U30G, G31A, G32A, G33A"}, "B7": {"name": "2AP24 TAR2GC (structured_RNA)", "RNA": "B1 RNA with C23A", "modifications": "2-aminopurine at C24"}},
  "key": {"[1]": {"target": "PKR dsRBMs (Homo sapiens) (UniProt P19525)", "sequence (P19525 9-167)": "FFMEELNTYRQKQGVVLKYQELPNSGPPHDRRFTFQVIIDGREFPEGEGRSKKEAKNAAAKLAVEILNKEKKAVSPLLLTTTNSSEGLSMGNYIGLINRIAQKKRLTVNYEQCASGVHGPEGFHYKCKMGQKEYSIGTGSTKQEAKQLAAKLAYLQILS", "experiment": "FP"}, "[2]": {"target": "PKR (unphosphorylated) (Homo sapiens) (UniProt P19525)", "sequence (P19525 whole entry)": "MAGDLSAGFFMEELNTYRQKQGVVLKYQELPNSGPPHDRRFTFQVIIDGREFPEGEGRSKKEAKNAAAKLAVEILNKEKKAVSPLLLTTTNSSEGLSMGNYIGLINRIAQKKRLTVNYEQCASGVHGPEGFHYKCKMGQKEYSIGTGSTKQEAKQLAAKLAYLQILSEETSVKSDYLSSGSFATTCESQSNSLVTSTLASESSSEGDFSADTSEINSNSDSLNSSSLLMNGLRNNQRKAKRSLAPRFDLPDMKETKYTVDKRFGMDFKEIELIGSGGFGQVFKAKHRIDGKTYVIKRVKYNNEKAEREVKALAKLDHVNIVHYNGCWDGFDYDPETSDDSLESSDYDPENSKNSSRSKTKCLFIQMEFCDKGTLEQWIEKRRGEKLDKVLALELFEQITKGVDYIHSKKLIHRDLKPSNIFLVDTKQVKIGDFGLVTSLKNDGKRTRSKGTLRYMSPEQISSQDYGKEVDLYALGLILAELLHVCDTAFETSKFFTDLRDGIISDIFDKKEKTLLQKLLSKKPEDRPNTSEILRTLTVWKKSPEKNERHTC", "experiment": "FP"}, "PKR dsRBMs [3]": {"target": "T1, PKR dsRBMs (Homo sapiens, UniProt P19525 9-167)", "T1 sequence (P19525 9-167)": "as the sequence (P19525 9-167) above", "experiment": "FP", "settings": "protein: recombinant, tags: tag cleaved by TEV, hairpin"}, "PKR (unphosphorylated) [4]": {"target": "T2, PKR (unphosphorylated) (Homo sapiens, UniProt P19525 1-551)", "T2 sequence (P19525 whole entry)": "as the sequence (P19525 whole entry) above", "experiment": "FP", "settings": "protein: recombinant, tags: His tag (HisTrap purified), hairpin"}, "Tat44-60 WT [5]": {"target": "T3, Tat44-60 WT (HIV-1, UniProt P04608)", "T3 chain": "GISYGRKKRRQRRRAHQ", "experiment": "ITC; 1 mM Mg2+", "settings": "label: 3' FAM in FP; none in ITC and SEC-MALS; hairpin, blunt 2 G-C end; bulges C5, A17, U23-C24-U25"}, "Tat44-60 WT [6]": {"target": "T3, Tat44-60 WT", "experiment": "2AP fluorescence lifetime", "settings": "label: 2AP; hairpin"}, "NC (nucleocapsid)": {"target": "NC (nucleocapsid) (HIV-1, UniProt P04591 378-432)", "experiment": "2AP fluorescence lifetime", "settings": "protein: recombinant; tags: MBP tag cleaved by PreScission; label: 2AP; hairpin"}, "PKR dsRBMs [7]": {"target": "T1, PKR dsRBMs", "experiment": "2AP fluorescence lifetime", "settings": "protein: recombinant; tags: tag cleaved by TEV; label: 2AP; hairpin"}, "PKR (unphosphorylated) [8]": {"target": "T2, PKR (unphosphorylated)", "experiment": "FP; printed Kd 0.02 uM conflicts with log Ka and with text (3-fold weaker)", "settings": "protein: recombinant; tags: His tag (HisTrap purified); label: 3' FAM; hairpin"}, "Tat44-60 WT [9]": {"target": "T3, Tat44-60 WT", "experiment": "crystal structure; peptide soaked into TAR-I crystals, 2.7 A; FP: 25 mM Tris-HCl pH 7.5, 50 mM NaCl, 50 mM KCl, 2 mM MgCl2, 21 C, 5 nM RNA; ITC: 25 mM Tris-HCl pH 7.5, 100 mM NaCl, 1 mM MgCl2, 25 C", "settings": "hairpin, GAAA tetraloop"}, "[10]": {"settings": "label: 3' FAM in FP, none in ITC and SEC-MALS, blunt 2 G-C end, bulges C5, A17, U23-C24-U25"}},
  "note": "Residue numbers refer to the chain shown, from its start. Names and notes keep the numbering of the source.",
  "data": [
    {"molecule": "VA-I RNA", "values": [
      {"measurement": "Kd", "setting": "[1]", "result": 220, "unit": "nM"},
      {"measurement": "Kd", "setting": "[2]", "result": 40, "unit": "nM"}
    ]},
    {"molecule": "TARΔ23-39", "values": [
      {"measurement": "Kd", "setting": "[1]", "result": 190, "unit": "nM"},
      {"measurement": "Kd", "setting": "[2]", "result": 54, "unit": "nM"}
    ]},
    {"molecule": "GUUAGACCAGAUCUGAGCCUGGGAGCUCUCUGGCUAAC (structured_RNA)", "note": "[TARΔ9bp]", "values": [
      {"measurement": "Kd", "setting": "PKR dsRBMs [3]; label: 3' FAM", "result": "1900 ± 700", "unit": "nM"},
      {"measurement": "Kd", "setting": "PKR (unphosphorylated) [4]; label: 3' FAM", "result": "130 ± 40", "unit": "nM"}
    ]},
    {"molecule": "CUCUGGUUAGACCAGAUCUGAGCCUGGGAGCUCUCUGGCUAACUAGGG (structured_RNA)", "note": "[TARΔ4bp]", "values": [
      {"measurement": "Kd", "setting": "PKR dsRBMs [3]; label: 3' FAM", "result": "290 ± 20", "unit": "nM"},
      {"measurement": "Kd", "setting": "PKR (unphosphorylated) [4]; label: 3' FAM", "result": "50 ± 3", "unit": "nM"}
    ]},
    {"molecule": "CCAGAUCUGAGCCUGGGAGCUCUCUGG (structured_RNA)", "note": "[TARΔ14bp]", "values": [
      {"measurement": "Kd", "setting": "PKR dsRBMs [3]; label: 3' FAM", "result": "2280 ± 700", "unit": "nM"},
      {"measurement": "Kd", "setting": "PKR (unphosphorylated) [4]; label: 3' FAM", "result": "1230 ± 1000", "unit": "nM"}
    ]},
    {"molecule": "B1", "values": [
      {"measurement": "Kd", "setting": "Tat44-60 WT [5]", "result": "160 ± 100", "unit": "nM"},
      {"measurement": "Kd", "setting": "PKR dsRBMs [3]; [10]", "result": "120 ± 10", "unit": "nM"},
      {"measurement": "Kd", "setting": "PKR (unphosphorylated) [4]; [10]", "result": "35 ± 5", "unit": "nM"}
    ]},
    {"molecule": "B2", "values": [
      {"measurement": "binding result", "setting": "Tat44-60 WT [6]", "result": "binds"},
      {"measurement": "binding result", "setting": "NC (nucleocapsid)", "result": "binds"}
    ]},
    {"molecule": "B3", "values": [
      {"measurement": "binding result", "setting": "PKR dsRBMs [7]", "result": "binds"},
      {"measurement": "binding result", "setting": "Tat44-60 WT [6]", "result": "binds"},
      {"measurement": "binding result", "setting": "NC (nucleocapsid)", "result": "binds"}
    ]},
    {"molecule": "B4", "values": [
      {"measurement": "binding result", "setting": "PKR dsRBMs [7]", "result": "binds"},
      {"measurement": "binding result", "setting": "Tat44-60 WT [6]", "result": "binds"},
      {"measurement": "binding result", "setting": "NC (nucleocapsid)", "result": "binds"}
    ]},
    {"molecule": "B5", "values": [
      {"measurement": "Kd", "setting": "PKR dsRBMs [3]; label: 3' FAM", "result": "360 ± 120", "unit": "nM"},
      {"measurement": "Ka", "setting": "PKR (unphosphorylated) [8]", "result": "7.02 ± 0.11 log10 M-1"}
    ]},
    {"molecule": "B6", "values": [
      {"measurement": "binding result", "setting": "Tat44-60 WT [9]", "result": "binds"}
    ]},
    {"molecule": "B7", "values": [
      {"measurement": "binding result", "setting": "PKR dsRBMs [7]", "result": "binds"},
      {"measurement": "binding result", "setting": "Tat44-60 WT [6]", "result": "binds"},
      {"measurement": "binding result", "setting": "NC (nucleocapsid)", "result": "binds"}
    ]}
  ]
}
